Experimental findings from patent US20070160658A1, “Delivery system for diagnostic and therapeutic agents” (The Penn State Research Foundation, priority 2005, published 2007) are described below.

The data set deals with T1, IL-13Rα2 (Homo sapiens, UniProt Q14627).
T1 sequence (Q14627 27-380): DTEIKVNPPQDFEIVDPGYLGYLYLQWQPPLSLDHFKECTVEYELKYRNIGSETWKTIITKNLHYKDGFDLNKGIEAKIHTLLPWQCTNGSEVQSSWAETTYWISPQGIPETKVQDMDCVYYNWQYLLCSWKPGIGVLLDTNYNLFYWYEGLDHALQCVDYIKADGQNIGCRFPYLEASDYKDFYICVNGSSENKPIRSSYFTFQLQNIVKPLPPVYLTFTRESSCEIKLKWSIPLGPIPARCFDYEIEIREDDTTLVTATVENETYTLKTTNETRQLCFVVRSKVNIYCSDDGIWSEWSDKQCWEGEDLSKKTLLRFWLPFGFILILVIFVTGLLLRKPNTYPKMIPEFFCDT
The data set can be described thus: titered cytotoxicity neutralization assay against IL13-PE38QQR cytotoxin. The class given is cell-based. Conditions: protein 100 ng/ml; cytotoxin IL13-PE38QQR fixed at 10 ng/ml. The procedure: Additionally, position K105 of this region of IL-13 is mutated into a variety of amino acids and the mutants' cytotoxic neutralization potential and binding affinity towards IL-13Rα2 is determined. […] In this titered cytotoxicity neutralization experiment, higher neutralization efficiency against the IL13-PE38QQR cytotoxin, for the mutant IL13.K105R is observed (Madhankumar A. B., Mintz, A., and Debinski, W. (2004) Neoplasia (New York) 6, 15-22). IL13.K105R is able to neutralize the cytotoxicity to 99% at 100 ng/ml concentration when compared with its blocking efficiency at 1000 ng/ml concentration. However, the wild type IL-13 and the mutant IL13.K106R and IL13.R109K have only 86.5%, 86.7% and 80.7% of the cytotoxicity neutralization efficiency with respect to their neutralization efficiency at 1000 ng/ml concentration. […] The high affinity mutant IL13.K105R is used as a ligand to conjugate to liposomes in order to better target the glioma associated IL-13Rα2 receptor.

Take “IL13.K106R: mutant of IL-13 at position 106”: the “cytotoxicity neutralization efficiency with respect to neutralization efficiency at 1000 ng/ml” value is reported as 86.7%.
On to “wild type IL-13: human cytokine interleukin-13, wild type”, for which the “cytotoxicity neutralization efficiency with respect to neutralization efficiency at 1000 ng/ml” value stood at 86.5%.
